This series is described as follows: self-splicing fitness, log relative to wild type (ln ratio); higher = more splicing; Tetrahymena group I intron in knt gene, E. coli kanamycin selection, DiMSum; sequences stand for … in CUCUCU…GGAGGGAAAAGUUAUCAGGCAUGCACCUGGUAGCUAGUCUUUAAACCAAUAGAUUGCAUCGGUUUAAAAGGCAAGACCGUCAAAUUGCGGGAAAGGGGUCAACAGCCGUUCAGUACCAAGUCUCAGGGGAAACUUUGAGAUGGCCUUGCAAAGGGUAUGGUAAUAAGCUGACGGACAUGGUCCUAACCACGCAGCCAAGUCCUAAGUCAACAGAUCUUCUGUUGAUAUGGAUGCAGUUCACAGACUAAAUGUCGGUCGGGGAAGAUGUAUUCUUCUCAUAAGAUAUAGUCGGACCUCUCCUUAAUGGGAGCUAGCGGAUGAAGUGAUGCAACACUGGAGCCGCUGGGAACUAAUUUGUAUGCGAAAGUAUAUUGAUUAGUUUUGGAGUACUCGUGGUCG
An outline of the steps: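 Colonies from six replicate transformations of E. coli BL21(DE3) were pooled and amplicon-sequenced on an Illumina HiSeq 2500. The library placed an intron with all eight P1ex-region nucleotides randomised inside the knt kanamycin-resistance gene on pET-22b(+), and cells grew overnight at 37°C or 30°C on LB agar with or without 25 μg/mL kanamycin (plus 100 μg/mL carbenicillin, 50 μM IPTG, 0.2% rhamnose). Fitness is the DiMSum error-weighted combination of wild-type-normalised replicate fold changes, kanamycin versus none.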

± gives the uncertainty stated by the source.

For the sequence CCUGAGCAAUAUUACGAGUG, the “self-splicing fitness (ln)” value was -1.44 ± 0.097 (30 °C) and -0.572 ± 0.12 (37 °C). Take GGAAAGCAAUAUUACGGUAC: the “self-splicing fitness (ln)” value is, setting by setting: (30 °C) -0.689 ± 0.13; (37 °C) -1.36 ± 0.19. On to AGCCAGCAAUAUUACGCGUA, for which the “self-splicing fitness (ln)” value is -1.99 ± 0.13 (30 °C) and -1.44 ± 0.14 (37 °C). Regarding UGUGAGCAAUAUUACGGUAU, the “self-splicing fitness (ln)” value (30 °C) is -3.87 ± 0.34. For UGUCAGCAAUAUUACGAGGA, the “self-splicing fitness (ln)” value is, setting by setting: (30 °C) -2.46 ± 0.22; (37 °C) -0.886 ± 0.15. Consider ACCUAGCAAUAUUACGAAAA, for which the “self-splicing fitness (ln)” value was -2.66 ± 0.18 (30 °C) and -1.7 ± 0.13 (37 °C). On the same counts, the results for CUAUAGCAAUAUUACGUGAU are -1.33 ± 0.066 and -0.295 ± 0.1.

Consider UAUUAGCAAUAUUACGAAGU, for which the “self-splicing fitness (ln)” value (30 °C) is -2.67 ± 0.42 and the “self-splicing fitness (ln)” value (37 °C) was -2.12 ± 0.4.

For the sequence GGCAAGCAAUAUUACGUUAC, the “self-splicing fitness (ln)” value is -1.39 ± 0.12 (30 °C) and -1.5 ± 0.14 (37 °C). For the sequence AAUAAGCAAUAUUACGCAUA, the “self-splicing fitness (ln)” value by setting is: (30 °C) -1.59 ± 0.16; (37 °C) -0.617 ± 0.16.

For CUGCAGCAAUAUUACGUCGG, the “self-splicing fitness (ln)” value is -3.32 ± 0.18 (30 °C) and -1.98 ± 0.2 (37 °C). For GGCUAGCAAUAUUACGUGAU the same measures were -0.939 ± 0.099 and -0.509 ± 0.11. Regarding GAACAGCAAUAUUACGUUGC, the “self-splicing fitness (ln)” value (30 °C) was -3.47 ± 0.19 and the “self-splicing fitness (ln)” value (37 °C) is -3.4 ± 0.29. AUAUAGCAAUAUUACGGGCA: the “self-splicing fitness (ln)” value runs as follows: (30 °C) -1.67 ± 0.17; (37 °C) -1.29 ± 0.19. For GUUUAGCAAUAUUACGGUCU, the “self-splicing fitness (ln)” value is, setting by setting: (30 °C) -1.44 ± 0.12; (37 °C) -1.05 ± 0.13. With UCGUAGCAAUAUUACGUACU, the “self-splicing fitness (ln)” value was -2.04 ± 0.23 (30 °C) and -1.27 ± 0.17 (37 °C). For CAAUAGCAAUAUUACGGGGU, the “self-splicing fitness (ln)” value by setting is: (30 °C) -4.27 ± 0.39; (37 °C) -2.48 ± 0.23. For CAGUAGCAAUAUUACGUGUC the same measures were -3.74 ± 0.27 and -3.17 ± 0.33. For GACGAGCAAUAUUACGUUCU the same measures were -4.53 ± 0.37 and -2.52 ± 0.24. For the sequence GGUGAGCAAUAUUACGGAAG, the “self-splicing fitness (ln)” value (37 °C) is -2.66 ± 0.41. As to AUGCAGCAAUAUUACGACUA, the “self-splicing fitness (ln)” value was -0.708 ± 0.12 (30 °C) and -0.187 ± 0.11 (37 °C). For CCAUAGCAAUAUUACGCUAC the same measures were -4.24 ± 0.28 and -3.23 ± 0.32. For UGUUAGCAAUAUUACGAGCA the same measures were -0.725 ± 0.12 and -0.136 ± 0.17. For ACCAAGCAAUAUUACGCCAC, the “self-splicing fitness (ln)” value runs as follows: (30 °C) -1.48 ± 0.31; (37 °C) -2.12 ± 0.3. For GUACAGCAAUAUUACGCUCG the same measures were -0.881 ± 0.13 and -0.344 ± 0.14. As to GUUAAGCAAUAUUACGGUGC, the “self-splicing fitness (ln)” value is, setting by setting: (30 °C) -2.42 ± 0.1; (37 °C) -1.23 ± 0.12. GUCUAGCAAUAUUACGGGUA: the “self-splicing fitness (ln)” value is -1.28 ± 0.11 (30 °C) and -0.285 ± 0.09 (37 °C). On the same counts, the results for UUGCAGCAAUAUUACGAGGG are -2.78 ± 0.15 and -0.707 ± 0.15. Take GCUAAGCAAUAUUACGUUCA: the “self-splicing fitness (ln)” value (30 °C) is -1.08 ± 0.07 and the “self-splicing fitness (ln)” value (37 °C) is -0.54 ± 0.092. For GAGGAGCAAUAUUACGCCGG the same measures were -3.44 ± 0.48 and -2.68 ± 0.36. For CUCCAGCAAUAUUACGUGCA the same measures were -3.43 ± 0.17 and -2.32 ± 0.13. For AUUAAGCAAUAUUACGCACG the same measures were -1.37 ± 0.16 and -0.648 ± 0.17. For the sequence UAAUAGCAAUAUUACGCUGU, the “self-splicing fitness (ln)” value reads like this: (30 °C) -3.69 ± 0.28; (37 °C) -0.659 ± 0.17. Take AGGCAGCAAUAUUACGCGAU: the “self-splicing fitness (ln)” value by setting is: (30 °C) -4.3 ± 0.42; (37 °C) -1.93 ± 0.21. On the same counts, the results for UCCAAGCAAUAUUACGAGCC are -2.51 ± 0.49 and -1.88 ± 0.29. For GUGGAGCAAUAUUACGAAUG the same measures were -3.75 ± 0.4 and -1.77 ± 0.37. UAAGAGCAAUAUUACGGCAC: the “self-splicing fitness (ln)” value (37 °C) was -1.16 ± 0.48. On to CUCUAGCAAUAUUACGGUAU, for which the “self-splicing fitness (ln)” value reads like this: (30 °C) -2.7 ± 0.16; (37 °C) -2.77 ± 0.23.
